Assay results published in patent US8501695B2, “Tissue kallikrein for the treatment of diseases associated with amyloid protein” (DiaMedica, Inc., priority 2007, dated 2013).
Values joined by “and” are separate entries in the source; they are usually repeats but may differ in a detail not shown here. Equal entries are not always repeated.

Assay: Pharmacokinetic study of intranasal tissue kallikrein (125I-KLK1 tissue concentrations by gamma counting)
Format: in vivo
Conditions: rat, 30 min. end point
Protocol: The purpose of this study was to quantify the amount of tissue kallikrein (KLK1) reaching the central nervous system and peripheral tissues after intranasal administration to anesthetized rats. At 30 min after KLK1 administration, animals were transcardially perfused with ice-cold saline followed by paraformaldehyde fixative and tissues were dissected. The amount of radiolabeled KLK1 in each tissue sample was quantified by gamma counting and tissue concentrations were calculated using tissue weight and gamma counting of standards of the dosing solutions
Adult male Sprague Dawley rats (n=10, mean 335.4 g±4.57 g SE) were used for this study. Animals were group housed in the Regions Hospital Animal Care Facility with free access to food and water. Animals were kept on a 12 h light cycle. All experimental procedures were approved by the Animal Care and Use Committee at Regions Hospital under IACUC protocol number 08-022.
Tissue kallikrein was sent to Perkin-Elmer for ^125I-labelling (Quote NEX-084, lot C1541583). Non-labeled KLK1 from Sigma (cat#K3627-1KU, lot 018K1441) was also used. Non-labeled KLK1 was dissolved in 1×PBS (10×PBS, Sigma, cat #P5493, lot 027K8405 diluted in sterile water). The average dose was 48.1 μL, 75 μCi, and 2.6 mg.
• a. Prior to anesthesia, each rat was weighed. • b. An anesthesia cocktail was prepared and full, half, and quarter anesthesia doses were calculated according to the animal's weight with a full dose containing 30 mg/kg ketamine, 6 mg/kg xylazine, and 1 mg/kg acepromazine. • c. A 1-cc syringe fitted with a 25 G or 27 G, ½ inch needle was assembled and a full dose was drawn into the syringe for injection. • d. Rats were restrained in a towel as follows. Rats were placed ventral side down in the middle of a hand towel. The towel was then wrapped around the head and shoulders to restrain. Wrapped animals remained ventral side down while the left hind leg was located. • e. The left hind leg was drawn to the side and the needle was inserted just beneath the skin (subcutaneous) above the thigh. After ensuring that the needle was placed subcutaneously (and not intramuscularly), full doses were injected. Rats were placed in holding cages and the injection time noted. Animals should be under within 5 min. • f. Anesthesia was monitored throughout the procedures by assessing reflexes using pinching of the hind paw or tail. If a reflex was present, a half or quarter dose booster was administered as necessary. • g. During drug administration, animals received a half dose booster roughly 20-25 min after initial dose. Intranasal Delivery of ^125I-KLK1 • a. Anesthetized rats were placed on their backs on a heating pad in a metal surgical tray. The heating pad was connected to a thermostat and was automatically regulated to maintain a 37° C. temperature based on continuous measurement from a rectal probe. • b. A 2″×2″ gauze pad was rolled tightly into a pillow, taped together, and under the neck to maintain a correct neck position horizontal with the counter. • c. A lead impregnated shield was placed between the surgical tray and the experimenter for protection against radiation. The dose solution, pipette, pipette tips, and waste receptacle were arranged behind the shield for easy access. • d. A 6 μL drop was loaded into the pipette behind the shield. • e. A cotton swab covered in parafilm was used to occlude one naris completely (the flat part of the swab was pushed gently against the naris to prevent airflow), while the 6 μL drop was expelled slowly from the pipette (held at a 45° angle from the rat's midline), forming a drop on the pipette tip. The drop was lowered onto the open naris to be inhaled. • f. After two minutes, the alternate naris was occluded and a 6 μL drop was administered in the same fashion. • g. A drop was administered as described above every two minutes to alternating nares until a total of 8 drops was delivered (4 to each naris) over 14 min. • h. […]

[1] = individual animal, listed as kallikrien

B1: tissue kallikrein: serine protease that cleaves kininogen into kallidin; polypeptide SEQ ID NO:1 (Sus scrofa kallikrein 1), KLK1 from Sigma (protein, listed as Sus scrofa)
chain: MWSLVMRLALSLAGTGAAPPIQSRIIGGRECEKDSHPWQVAIYHYSSFQCGGVLVDPKWVLTAAHCKNDNYQVWLGRHNLFENEVTAQFFGVTADFPHPGFNLSLLKNHTKADGKDYSHDLMLLRLQSPAKITDAVKVLELPTQEPELGSTCQASGWGSIEPGPDDFEFPDEIQCVELTLLQNTFCADAHPDKVTESMLCAGYLPGGKDTCMGDSGGPLICNGMWQGITSWGHTPCGSANKPSIYTKLIFYLDWINDTITENP
modifications: 125I label in one form
For B1, the “concentration in Ventral Dura” value (Avg, outliers removed) was 143.0 nM, the “concentration in Amygdala” value [1] was 13.5 nM and 10.9 nM and 14.16 nM and 18.3 nM and 12.1 nM and 25.4 nM and 15.2 nM and 13.9 nM and 24.6 nM and 13.7 nM and the “concentration in Anterior Olfactory Nucleus” value [1] was 23.1 nM and 15.1 nM and 24.0 nM and 20.5 nM and 19.3 nM and 44.8 nM and 29.2 nM and 25.2 nM and 45.6 nM and 21.2 nM. For the same molecule, the “concentration in Anterior Trigeminal Nerve” value [1] was 233.5 nM and 75.1 nM and 83.9 nM and 83.5 nM and 108.3 nM and 68.8 nM and 111.7 nM and 139.2 nM and 77.5 nM, the “concentration in Axillary Nodes (2)” value [1] was 44.6 nM and 38.9 nM and 58.8 nM and 44.4 nM and 43.9 nM and 48.8 nM and 28.6 nM and 33.5 nM and 47.7 nM and 34.0 nM and the “concentration in Blood Sample” value [1] was 292.4 nM and 272.4 nM and 327.7 nM and 288.9 nM and 275.6 nM and 231.1 nM and 233.0 nM and 251.9 nM and 242.4 nM and 268.4 nM. For the same molecule, the “concentration in Carotid Artery” value [1] was 127.5 nM and 55.9 nM and 111.2 nM and 103.2 nM and 138.7 nM and 175.1 nM and 84.9 nM and 115.6 nM and 108.2 nM, the “concentration in Cerebellum” value [1] was 9.3 nM and 10.6 nM and 10.06 nM and 13.2 nM and 11.2 nM and 12.2 nM and 8.6 nM and 14.7 nM and 7.8 nM and the “concentration in Cervical Nodes (2)” value [1] was 214.4 nM and 3.1 nM and 116.3 nM and 72.1 nM and 100.5 nM and 119.9 nM and 103.7 nM and 196.0 nM and 174.6 nM. The “concentration in Circle of Willis & Basilar Artery” value [1] was 190.7 nM and 56.9 nM and 44.4 nM and 133.6 nM and 87.4 nM and 178.2 nM and 115.5 nM and 44.1 nM and 134.1 nM and 48.3 nM, the “concentration in Dorsal Dura” value [1] was 116.0 nM and 92.5 nM and 118.2 nM and 156.9 nM and 116.8 nM and 131.0 nM and 132.9 nM and 242.5 nM and 89.5 nM and the “concentration in Esophagus” value [1] was 118.0 nM and 66.9 nM and 109.6 nM and 87.7 nM and 68.1 nM and 40.9 nM and 65.1 nM and 85.4 nM and 128.1 nM and 82.4 nM. For the same molecule, the “concentration in Extra Cortex” value [1] was 10.3 nM and 11.3 nM and 12.40 nM and 13.3 nM and 13.8 nM and 17.2 nM and 12.8 nM and 16.6 nM and 9.8 nM, the “concentration in Extra Slice #1” value [1] was 17.1 nM and 16.2 nM and 19.4 nM and 16.6 nM and 16.9 nM and 43.2 nM and 31.1 nM and 29.6 nM and 22.7 nM and the “concentration in Extra Slice #2” value [1] was 9.2 nM and 11.0 nM and 12.33 nM and 17.0 nM and 11.7 nM and 28.5 nM and 17.6 nM and 17.3 nM and 27.0 nM and 15.6 nM. The “concentration in Extra Slice #3” value [1] was 8.8 nM and 9.6 nM and 11.43 nM and 10.7 nM and 9.9 nM and 23.3 nM and 17.2 nM and 13.6 nM and 21.0 nM and 13.8 nM, the “concentration in Extra Slice #4” value [1] was 7.5 nM and 8.6 nM and 9.4 nM and 9.9 nM and 18.4 nM and 14.7 nM and 10.5 nM and 17.0 nM and 11.8 nM and the “concentration in Extra Slice #5” value [1] was 7.7 nM and 7.6 nM and 10.7 nM and 9.2 nM and 10.8 nM and 19.2 nM and 18.6 nM and 9.7 nM and 14.8 nM and 9.9 nM. For the same molecule, the “concentration in Extra Slice #6” value [1] was 7.9 nM and 8.1 nM and 12.1 nM and 10.5 nM and 12.2 nM and 16.7 nM and 10.4 nM and 14.8 nM and 9.5 nM, the “concentration in Frontal Cortex” value [1] was 12.0 nM and 16.1 nM and 15.8 nM and 16.9 nM and 17.4 nM and 45.7 nM and 27.7 nM and 26.8 nM and 38.9 nM and 22.0 nM and the “concentration in Heart” value [1] was 17.4 nM and 16.0 nM and 21.9 nM and 30.1 nM and 12.7 nM and 31.4 nM and 13.7 nM and 23.2 nM and 22.8 nM and 37.0 nM. For the same molecule, the “concentration in Hippocampus” value [1] was 7.0 nM (2×) and 11.6 nM and 10.6 nM and 8.8 nM and 16.4 nM and 13.4 nM and 13.7 nM and 8.2 nM, the “concentration in Hypothalamus” value [1] was 17.1 nM and 11.9 nM and 21.1 nM and 15.8 nM and 17.4 nM and 37.6 nM and 28.8 nM and 15.7 nM and 38.9 nM and 17.3 nM and the “concentration in Kidney (L, tip)” value [1] was 179.0 nM and 213.3 nM and 187.5 nM and 115.0 nM and 24.6 nM and 35.5 nM and 103.9 nM and 240.4 nM and 212.2 nM and 36.9 nM. For the same molecule, the “concentration in Liver (R, superficial lobe)” value [1] was 18.7 nM and 37.1 nM and 25.7 nM and 26.6 nM and 40.2 nM and 26.1 nM and 16.4 nM and 16.1 nM and 21.8 nM and 28.8 nM, the “concentration in Lower Cervical Spinal Cord” value [1] was 5.3 nM and 6.6 nM and 7.3 nM (2×) and 5.2 nM and 4.7 nM and 7.0 nM and 6.5 nM and 10.1 nM and 10.9 nM and the “concentration in Lumbar Spinal Cord” value [1] was 5.1 nM and 4.9 nM and 5.8 nM and 4.7 nM and 5.0 nM and 5.35 nM and 4.2 nM (2×) and 5.6 nM and 4.6 nM.
